± gives the uncertainty stated by the source.
Assay: protein stability index of a GFP-peptide fusion (yeast GPS) (PSI 1-4); higher = more stable; sorted into four equal gates, so the index is relative within each strain
How it was run: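 Tiled 17-residue peptides from yeast proteins were fused downstream of GFP on a plasmid that also expresses Cherry, and the pooled library was carried in yeast. Mid-log cultures grown in leucine-free medium were sorted into four equal gates by GFP/Cherry fluorescence ratio. Plasmids from each gate were PCR-amplified and Illumina-sequenced, and reads were assigned to strains by barcodes. Each peptide's protein stability index is the sum, over gates, of the gate's read frequency multiplied by its gate number.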

TFHDYDMVKLDINPPLV [RRP42]
protein stability index (doa10∆): 2.94 ± 0.088
protein stability index (pdr5∆): 2.73 ± 0.061
protein stability index (san1∆): 2.87 ± 0.096
protein stability index (ubr1∆): 3.15 ± 0.037

GSFNEMKRNCGQIITLF [RMP1]
protein stability index (doa10∆): 2.74 ± 0.064
protein stability index (pdr5∆): 2.91 ± 0.06
protein stability index (san1∆): 2.55 ± 0.062
protein stability index (ubr1∆): 2.87 ± 0.052

TSCTIPKAVVDHINGSG [GAL11]
protein stability index (doa10∆): 2.23 ± 0.083
protein stability index (pdr5∆): 2.78 ± 0.077
protein stability index (san1∆): 1.24 ± 0.12
protein stability index (ubr1∆): 1.79 ± 0.087

TKRESLNARMFLKYYGA [SIR2]
protein stability index (doa10∆): 2.98 ± 0.11
protein stability index (pdr5∆): 2.9 ± 0.098
protein stability index (san1∆): 3.14 ± 0.11
protein stability index (ubr1∆): 2.6 ± 0.1

TQTSKEQEIENNGLPMK [ITC1]
protein stability index (doa10∆): 2.9 ± 0.075
protein stability index (pdr5∆): 3.2 ± 0.12
protein stability index (san1∆): 2.87 ± 0.1
protein stability index (ubr1∆): 2.86 ± 0.089

KDERDTWIHSEIEELKS [SMC3]
protein stability index (doa10∆): 3.16 ± 0.18
protein stability index (pdr5∆): 3.02 ± 0.097
protein stability index (san1∆): 2.91 ± 0.25
protein stability index (ubr1∆): 3.19 ± 0.12

PKHSYLSGNPLTSVTND [SIR4]
protein stability index (doa10∆): 2.67 ± 0.073
protein stability index (pdr5∆): 3.03 ± 0.071
protein stability index (san1∆): 3.17 ± 0.056
protein stability index (ubr1∆): 2.97 ± 0.074

AQSHQRFNAKVSMVKRA [CDC53]
protein stability index (doa10∆): 1.34 ± 0.045
protein stability index (pdr5∆): 2.09 ± 0.061
protein stability index (san1∆): 1.56 ± 0.16
protein stability index (ubr1∆): 1.64 ± 0.031

PLINLALIDTEFANFEL [YML103C/NUP188]
protein stability index (doa10∆): 2.71 ± 0.083
protein stability index (pdr5∆): 2.72 ± 0.071
protein stability index (san1∆): 2.5 ± 0.089
protein stability index (ubr1∆): 2.95 ± 0.073

EVRRAAMLNLINDNNTR [YCG1]
protein stability index (doa10∆): 3.32 ± 0.12
protein stability index (pdr5∆): 3.41 ± 0.11
protein stability index (san1∆): 2.94 ± 0.11
protein stability index (ubr1∆): 3.13 ± 0.1

DVYNRELDEHTTQIDLF [BRR2]
protein stability index (doa10∆): 3.07 ± 0.07
protein stability index (pdr5∆): 2.73 ± 0.056
protein stability index (san1∆): 2.9 ± 0.046
protein stability index (ubr1∆): 2.41 ± 0.04

FRTVKEMVKDRGYFITQ [RPB5]
protein stability index (doa10∆): 2.52 ± 0.069
protein stability index (pdr5∆): 2.08 ± 0.071
protein stability index (san1∆): 1.72 ± 0.065
protein stability index (ubr1∆): 2.08 ± 0.041

NVVGKLISIISSVIQNY [YML103C/NUP188]
protein stability index (doa10∆): 1.79 ± 0.073
protein stability index (pdr5∆): 1.44 ± 0.078
protein stability index (san1∆): 1.36 ± 0.13
protein stability index (ubr1∆): 1.51 ± 0.089

YISNLLYGVTICYNKKT [REC8]
protein stability index (doa10∆): 1.22 ± 0.036
protein stability index (pdr5∆): 1.27 ± 0.048
protein stability index (san1∆): 1.3 ± 0.077
protein stability index (ubr1∆): 1.21 ± 0.03

SIEMEEETDDEDKQNIE [RRI2]
protein stability index (doa10∆): 3.25 ± 0.13
protein stability index (pdr5∆): 3.32 ± 0.11
protein stability index (san1∆): 3.39 ± 0.062
protein stability index (ubr1∆): 3.19 ± 0.061

GSSRIIASDGSECIVSI [RRP42]
protein stability index (doa10∆): 3.33 ± 0.14
protein stability index (pdr5∆): 3.27 ± 0.075
protein stability index (san1∆): 3.11 ± 0.061
protein stability index (ubr1∆): 3.12 ± 0.15

IFWGIRLAKSTENEIPN [BRR2]
protein stability index (doa10∆): 1.42 ± 0.089
protein stability index (pdr5∆): 1.43 ± 0.055
protein stability index (san1∆): 1.18 ± 0.13
protein stability index (ubr1∆): 1.49 ± 0.064

ENLMVQRTCLMTVTFLI [YCS4]
protein stability index (doa10∆): 2.09 ± 0.053
protein stability index (pdr5∆): 1.97 ± 0.045
protein stability index (san1∆): 2.16 ± 0.07
protein stability index (ubr1∆): 2.04 ± 0.038

SGKRKPTKAAQRARDQD [GAL11]
protein stability index (pdr5∆): 3.65 ± 0.16
protein stability index (san1∆): 3.25 ± 0.28
protein stability index (ubr1∆): 3.58 ± 0.15

EQSNSRKRTRSEAEQID [YCG1]
protein stability index (doa10∆): 3.35 ± 0.19
protein stability index (pdr5∆): 3.4 ± 0.26
protein stability index (san1∆): 2.81 ± 0.1

MVNIGLHNLNEYQIVYY [RGR1]
protein stability index (doa10∆): 1.65 ± 0.14
protein stability index (pdr5∆): 2.56 ± 0.1
protein stability index (san1∆): 2.11 ± 0.11
protein stability index (ubr1∆): 1.43 ± 0.27

GKIDEAADILCELQVET [RPN5]
protein stability index (doa10∆): 3.06 ± 0.12
protein stability index (pdr5∆): 3.25 ± 0.15
protein stability index (san1∆): 3.1 ± 0.061
protein stability index (ubr1∆): 3.46 ± 0.095

NIIQAKRDAKAAGSYYV [RPL7A]
protein stability index (doa10∆): 3.39 ± 0.11
protein stability index (pdr5∆): 3.24 ± 0.082
protein stability index (san1∆): 3.11 ± 0.057
protein stability index (ubr1∆): 2.64 ± 0.087

ERQMNFLTNELIRLQME [SWI3]
protein stability index (doa10∆): 3.07 ± 0.11
protein stability index (pdr5∆): 3.12 ± 0.072
protein stability index (san1∆): 3.22 ± 0.048
protein stability index (ubr1∆): 3.09 ± 0.069

TSIHSTISILAAPSGNY [RRP43]
protein stability index (doa10∆): 1.59 ± 0.038
protein stability index (pdr5∆): 1.85 ± 0.033
protein stability index (san1∆): 1.97 ± 0.05
protein stability index (ubr1∆): 1.67 ± 0.029

KIYNFGELLHHPIMETI [RPN9]
protein stability index (doa10∆): 2.58 ± 0.068
protein stability index (pdr5∆): 2.6 ± 0.074
protein stability index (san1∆): 1.84 ± 0.11
protein stability index (ubr1∆): 2.91 ± 0.11

Reference: the supplement of paper PMC9732359
